Data published in the nanobody polyreactivity screen of Harvey et al. (2022).

Test: yeast display, Sf9 membrane polyspecificity reagent, FACS + sequencing; frameworks hold sequencing errors
Outline: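 Polyreactivity labels are assigned by the sorting gate from which each nanobody was recovered. The gates were low and high (top ~1%), set on anti-HA fluorescence for expression and streptavidin fluorescence for reagent binding. Before sorting, galactose-induced (36–48 hours) yeast display cells were stained for 1 hour at 4 °C with 10% biotinylated, detergent-solubilized Sf9 membrane reagent.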

Sequence | polyreactivity (PSR sort gate)
PVQLVETGGGLVQAGGSLRLSCAASGGIFTLYVLGWYRQPPGKERELVAAISRTGGSTYYADSVKARFTISRDNAKNTVYLQMNSLKPEDTAVYYCAADYRQPSAFYYWGQGTQVTVSS | high polyreactivity
PVQVVESGGVLVQAGGSRRLSCAAAGGNFYGNVMGWYRQAPGKERELVADITSVSSTYYADSVKGRFTISRDNAKNTVFLQMKRLKPEDTAVYYCAPEPDHVADSHSGYDYWGQGTQVTVSS | low polyreactivity
QAQLHESAGGLVQAGGCLRLSCAASGYFSKKWGMGWYRKAPGKERELVATIAKGASTYYADSMKGRFTISRDNAKYTMYRQMNSLKPEDTAVYYCGATQQDDQGLGYWGQDTQVTVSS | high polyreactivity
QAQLQEIGGSLVQAGGGLRLSCEASGYISVGSVMGWYRQAPSKERELVASIDQGANTNYADSVKGRFTISRDNEKNNVYLQMKSLKPEDTAVYYCATETTYILNDWGQGTQVTVSS | low polyreactivity
QAQLQESGGSLVQAGGGLRLSCAASGYISVGSVMGWYRQAPSKERELVASIDQGANTNYADSVKGRFTISRDNAKNNVYLQMNSLKPEDSAVYYCATETTYILNYWGQGTQVTVSS | low polyreactivity
QAQLQESGGSLVQAGGGMRLSCAASGYISVGSVMGWYRQAPSKERELVASIDQGANTNYADSVKGRFTISRDNAKNNVYLQMNSLKPEDTAVYYCATETTYILNYWGQGTQVTVSS | low polyreactivity
QAQLVESGGGLVQAGGRLRLICAASGSIFAGYAMGWSRQAPGKERELVATITSSSRTNYADSVKGRFSISRDNAKNNVYLQMNILKPEETAVSYCAARGRSVIDVYRMYYWGQGTKVTVSS | high polyreactivity
QAQLVESGGGLVQAGGSLRLSCAASGSTSLDNAMGWYRQAPGKERELVAAIRWRGSITFYADSVKGRFTISRDNAKNTVYLQMNSLKPEDTAVYYCAVTLRYTRSGAYDYWGQGTQVTVSS | low polyreactivity
QAQLVESGGGLVQEGGSLRLSCAASGSIFYGYAMGWSRQAPGKERELVATIRFITGSTYYADSVKGRFTISRDNAKNTVYLQMNSLKPEDTAVYYCAAVYVGYYDNYDYWGQGTQVTVSS | low polyreactivity
QDHHVESGGGLVQAGGSLRLICAASGSTFSWNTMGWYRPAPGKERDLVAAISWSTGRTYYADSVKGRFTISRDNAKNTVYLQMISLKPEDTAVYYCAARRFVTDGTRREYDYWGQGTQVTVSS | high polyreactivity
QDHHVESGGGLVQARGTLRLSCAASGIIYSYYAMGWFRQAPGKEWELVAAITASGGSTYYADSVKGRFTISRDNAKNTVYLQMNSLKPQDTGVSYCAAGSFFLHLIGYSTVSYGRNYWGQGTQVTVAS | high polyreactivity
QDHLVESGGGLVQAGGSLRLSCAASGITFVYYYMGWYRTAPGKERELVAAISSDGSTYYADSVKGRFTISRDNAKNTVYLQMNSLKPEDTAVYYCNAVAIVPYFYVVYDIFDYWGQVTQVTVSS | low polyreactivity
QDHLVESGGGLVQAGGSLRLSCAASGSIFGLNVMGWYRHAPGKERELVASITSGRSTNYADSVKVRFTISRDNAKNTVYLQMNSLKPVVTAVYYCYATRVRGWYVTRYYYWGQGTQVTVSA | high polyreactivity
QDHLVESGGGLVQAGGSLRLSCAASGSIFRRNAMGWYRQAPGKERELVAAIRYSGDRTYYADSVKGRFTISRDNAKNTVYLQMNSLKPEDTAVYYCAAKRSVSYYGYYYWGQGSQVTVSS | high polyreactivity
QDHLVESWGGLIQAGCSLRISCAASGSITVYNAMGWYRQAPWKERELLAAITGGVTTNYADSVKGRFTISRDNAKTTFYLLMNSLKPEDTAVYYCAKSQIPFGLDSPVDYWGQGTQVNVSS | low polyreactivity
QDKLVDSGGGLVQAGGSLLLSCAASGFIFLNNAMGWYRQAPGKQRELVAAITWSGGSTYYADSVKGRFTISRDNAKNTVYLQMNSLKPVDTAVYYCAADGWLYYGVGFYSSRRDYYWGQGTQVTVSS | low polyreactivity
